In series [1] the target is T1, E53 (Erythrobacter longus, UniProt A0A074MDU6, I256L).
T1 construct: gene EH31_02760; full length, 314 residues; N-terminal His6-SUMO tag (pSMT3) removed with Ulp1; E. coli BL21(DE3); monomer
In words: X-ray crystal structure, substrate soak. Format: binding. The note with it: pH 6.5 crystals; active site.

The target of series [2] is T2, E53 (Erythrobacter longus, UniProt A0A074MDU6).
T2 construct: gene EH31_02760; full length, 314 residues; N-terminal His6-SUMO tag (pSMT3) removed with Ulp1; E. coli BL21(DE3); monomer
In words: X-ray crystal structure, substrate soak. The conditions noted are these: pH 6.5 crystals; active site. Format: binding.

The target of series [3] is T3, E53 (Erythrobacter longus, UniProt A0A074MDU6, S285G).
T3 construct: gene EH31_02760; full length, 314 residues; N-terminal His6-SUMO tag (pSMT3) removed with Ulp1; E. coli BL21(DE3); monomer
T3 sequence (A0A074MDU6 entry or part of it S285G): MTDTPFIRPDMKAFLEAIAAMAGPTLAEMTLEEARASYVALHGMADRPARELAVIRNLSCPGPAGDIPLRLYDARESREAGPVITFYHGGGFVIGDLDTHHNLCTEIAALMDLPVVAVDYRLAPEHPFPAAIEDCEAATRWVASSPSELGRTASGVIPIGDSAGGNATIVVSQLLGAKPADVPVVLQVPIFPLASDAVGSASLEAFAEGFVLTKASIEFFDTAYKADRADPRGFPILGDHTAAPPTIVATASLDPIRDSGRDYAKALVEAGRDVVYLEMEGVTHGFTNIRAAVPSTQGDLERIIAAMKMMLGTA
In words: X-ray crystal structure, substrate soak. Format: binding. The note with it: pH 6.5 crystals; active site.

Substrate in series [4]: CCCC(=O)Oc1ccc([N+](=O)[O-])cc1
In words: purified protein. Format: biochemical, Erythrobacter longus. The conditions noted are these: Tris-HCl pH 9.0 (also pH 7.0), 40 °C, 0.05-4.00 mM substrate.

Data on eight molecules can be found in publication PMC8767022, “Mechanism and Structural Insights Into a Novel Esterase, E53, Isolated From Erythrobacter longus” (Frontiers in Microbiology, 2022).

As to `CCCCCC(=O)Oc1ccc([N+](=O)[O-])cc1` [C6, p-NP hexanoate], the “X-ray crystal structure, substrate soak” value in series [1] is “observed in the crystal structures of E53, I256L, and S285G”; in series [2], “observed in the crystal structures of E53, I256L, and S285G”; in series [3], “observed in the crystal structures of E53, I256L, and S285G”.

B1: E53 (Erythrobacter longus; F191Y) (protein)
chain: MTDTPFIRPDMKAFLEAIAAMAGPTLAEMTLEEARASYVALHGMADRPARELAVIRNLSCPGPAGDIPLRLYDARESREAGPVITFYHGGGFVIGDLDTHHNLCTEIAALMDLPVVAVDYRLAPEHPFPAAIEDCEAATRWVASSPSELGRTASGVIPIGDSAGGNATIVVSQLLGAKPADVPVVLQVPIYPLASDAVGSASLEAFAEGFVLTKASIEFFDTAYKADRADPRGFPILGDHTAAPPTIVATASLDPIRDSGRDYAKALVEAGRDVVYLEMEGVTHSFTNIRAAVPSTQGDLERIIAAMKMMLGTA
notes: full length, 314 residues; N-terminal His6-SUMO tag (pSMT3) removed with Ulp1; E. coli BL21(DE3); monomer
On to B1, for which, in series [4], the Km was 0.21 ± 0.02 mM.

B2: E53 (Erythrobacter longus; S216A) (protein)
chain: MTDTPFIRPDMKAFLEAIAAMAGPTLAEMTLEEARASYVALHGMADRPARELAVIRNLSCPGPAGDIPLRLYDARESREAGPVITFYHGGGFVIGDLDTHHNLCTEIAALMDLPVVAVDYRLAPEHPFPAAIEDCEAATRWVASSPSELGRTASGVIPIGDSAGGNATIVVSQLLGAKPADVPVVLQVPIFPLASDAVGSASLEAFAEGFVLTKAAIEFFDTAYKADRADPRGFPILGDHTAAPPTIVATASLDPIRDSGRDYAKALVEAGRDVVYLEMEGVTHSFTNIRAAVPSTQGDLERIIAAMKMMLGTA
notes: as for B1
Take B2: the Km in series [4] worked out at 0.42 ± 0.03 mM.

B3: E53 (Erythrobacter longus) (protein)
chain: MTDTPFIRPDMKAFLEAIAAMAGPTLAEMTLEEARASYVALHGMADRPARELAVIRNLSCPGPAGDIPLRLYDARESREAGPVITFYHGGGFVIGDLDTHHNLCTEIAALMDLPVVAVDYRLAPEHPFPAAIEDCEAATRWVASSPSELGRTASGVIPIGDSAGGNATIVVSQLLGAKPADVPVVLQVPIFPLASDAVGSASLEAFAEGFVLTKASIEFFDTAYKADRADPRGFPILGDHTAAPPTIVATASLDPIRDSGRDYAKALVEAGRDVVYLEMEGVTHSFTNIRAAVPSTQGDLERIIAAMKMMLGTA
notes: as for B1
For B3, the Km in series [4] was found to be 0.33 ± 0.03 mM.

B4: E53 (Erythrobacter longus; I256L) (protein)
chain: MTDTPFIRPDMKAFLEAIAAMAGPTLAEMTLEEARASYVALHGMADRPARELAVIRNLSCPGPAGDIPLRLYDARESREAGPVITFYHGGGFVIGDLDTHHNLCTEIAALMDLPVVAVDYRLAPEHPFPAAIEDCEAATRWVASSPSELGRTASGVIPIGDSAGGNATIVVSQLLGAKPADVPVVLQVPIFPLASDAVGSASLEAFAEGFVLTKASIEFFDTAYKADRADPRGFPILGDHTAAPPTIVATASLDPLRDSGRDYAKALVEAGRDVVYLEMEGVTHSFTNIRAAVPSTQGDLERIIAAMKMMLGTA
notes: as for B1
B4: the Michaelis constant (Km) in series [4] amounted to 0.23 ± 0.02 mM.

B5: E53 (Erythrobacter longus; V211A) (protein)
chain: MTDTPFIRPDMKAFLEAIAAMAGPTLAEMTLEEARASYVALHGMADRPARELAVIRNLSCPGPAGDIPLRLYDARESREAGPVITFYHGGGFVIGDLDTHHNLCTEIAALMDLPVVAVDYRLAPEHPFPAAIEDCEAATRWVASSPSELGRTASGVIPIGDSAGGNATIVVSQLLGAKPADVPVVLQVPIFPLASDAVGSASLEAFAEGFALTKASIEFFDTAYKADRADPRGFPILGDHTAAPPTIVATASLDPIRDSGRDYAKALVEAGRDVVYLEMEGVTHSFTNIRAAVPSTQGDLERIIAAMKMMLGTA
notes: as for B1
B5: the Km in series [4] worked out at 0.52 ± 0.03 mM.

B6: E53 (Erythrobacter longus; N166A) (protein)
chain: MTDTPFIRPDMKAFLEAIAAMAGPTLAEMTLEEARASYVALHGMADRPARELAVIRNLSCPGPAGDIPLRLYDARESREAGPVITFYHGGGFVIGDLDTHHNLCTEIAALMDLPVVAVDYRLAPEHPFPAAIEDCEAATRWVASSPSELGRTASGVIPIGDSAGGAATIVVSQLLGAKPADVPVVLQVPIFPLASDAVGSASLEAFAEGFVLTKASIEFFDTAYKADRADPRGFPILGDHTAAPPTIVATASLDPIRDSGRDYAKALVEAGRDVVYLEMEGVTHSFTNIRAAVPSTQGDLERIIAAMKMMLGTA
notes: as for B1
Take B6: the Michaelis-Menten constant (Km) in series [4] turned out to be 0.46 ± 0.04 mM.

B7: E53 (Erythrobacter longus; A167L) (protein)
chain: MTDTPFIRPDMKAFLEAIAAMAGPTLAEMTLEEARASYVALHGMADRPARELAVIRNLSCPGPAGDIPLRLYDARESREAGPVITFYHGGGFVIGDLDTHHNLCTEIAALMDLPVVAVDYRLAPEHPFPAAIEDCEAATRWVASSPSELGRTASGVIPIGDSAGGNLTIVVSQLLGAKPADVPVVLQVPIFPLASDAVGSASLEAFAEGFVLTKASIEFFDTAYKADRADPRGFPILGDHTAAPPTIVATASLDPIRDSGRDYAKALVEAGRDVVYLEMEGVTHSFTNIRAAVPSTQGDLERIIAAMKMMLGTA
notes: as for B1
As for B7, the Michaelis constant (Km) in series [4] is 0.15 ± 0.01 mM.

The Km is the concentration of substrate that gives half-maximal velocity.
